The test concerns the target T1, Q324H MUTYH (human, UniProt Q9UIF7-3 1-535, Q324H).
T1 sequence (looked up): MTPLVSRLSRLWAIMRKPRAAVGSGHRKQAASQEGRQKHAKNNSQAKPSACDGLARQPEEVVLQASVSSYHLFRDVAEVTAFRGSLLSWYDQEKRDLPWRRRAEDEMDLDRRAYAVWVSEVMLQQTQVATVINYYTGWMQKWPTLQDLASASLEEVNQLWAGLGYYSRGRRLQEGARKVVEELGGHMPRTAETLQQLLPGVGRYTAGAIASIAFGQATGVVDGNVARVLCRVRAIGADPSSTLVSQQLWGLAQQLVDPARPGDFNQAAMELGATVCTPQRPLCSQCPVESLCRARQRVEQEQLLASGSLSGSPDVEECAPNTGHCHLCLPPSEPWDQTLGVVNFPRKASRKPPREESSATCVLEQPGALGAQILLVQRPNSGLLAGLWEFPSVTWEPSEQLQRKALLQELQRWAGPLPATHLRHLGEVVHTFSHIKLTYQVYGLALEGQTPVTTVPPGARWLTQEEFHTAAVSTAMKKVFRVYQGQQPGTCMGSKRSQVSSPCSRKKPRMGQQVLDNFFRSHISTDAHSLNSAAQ
In words: pull-down.

B1: Flag-tagged Hus1 (natural protein, UniProt O60921 1-280, looked up)
chain: MKFRAKIVDGACLNHFTRISNMIAKLAKTCTLRISPDKLNFILCDKLANGGVSMWCELEQENFFNEFQMEGVSAENNEIYLELTSENLSRALKTAQNARALKIKLTNKHFPCLTVSVELLSMSSSSRIVTHDIPIKVIPRKLWKDLQEPVVPDPDVSIYLPVLKTMKSVVEKMKNISNHLVIEANLDGELNLKIETELVCVTTHFKDLGNPPLASESTHEDRNVEHMAEVHIDIRKLLQFLAGQQVNPTKALCNIVNNKMVHFDLLHEDVSLQYFIPALS
B1: the “percent decrease of the interaction relative to WT MUTYH” value is approximately 20%.
